Article PMC11960969, “Mdga2 deficiency leads to an aberrant activation of BDNF/TrkB signaling that underlies autism-relevant synaptic and behavioral changes in mice” (PLOS Biology, 2025)

Tests used:
[1] = test system: TrkB signaling (pTrkB, pAkt, pmTOR); experiment: Immunoblotting of TrkB/Akt/mTOR phosphorylation in primary neurons transfected with MDGA2, ΔMAM or V930I; assay type: cell-based, mouse; settings: for pAkt level normalized to total protein / pTrkB level normalized to total protein / pmTOR level normalized to total protein: KO neurons transfected, WT/Ctrl set to one
Experimental: Fig 3 MDGA2 interacts with TrkB and suppresses TrkB activity. (A) Primary hippocampal neurons derived from Mdga2^ +/− (Het) mice and their wild-type (WT) littermates at DIV 7 were treated with different doses of BDNF for 30 min. Equal amounts of protein lysates were subjected to immunoprecipitation (IP) with an anti-TrkB antibody, followed by immunoblotting with an anti-phosphotyrosine (pTyr) antibody or the anti-TrkB antibody. The pTyr levels were quantified by densitometry, normalized to total TrkB levels, and then compared to those of WT controls. n = 3 per group. (B) WT mouse brain lysates were subjected to IP with an anti-MDGA2 antibody and a control IgG, and immunoblotted (IB) for the components indicated. mBDNF, mature BDNF; ImBDNF, immature BDNF. (C) Hippocampal neurons from WT mice at DIV 7 were immunostained with antibodies against MDGA2 (red) and TrkB (green), and then counter-stained with DAPI (blue). Images were acquired by a confocal microscope. Scale bar: 10 μm. (D) Surface plasmon resonance (SPR) analysis of the binding between recombinant MDGA2 protein and recombinant TrkB protein. TrkB was immobilized on a Biacore CM5 chip and tested for its binding with MDGA2 at the concentrations indicated. (E) Computer simulation of the binding mode of TrkB and MDGA2. The predicted binding domain of TrkB (the d5 domain) is highlighted by a red square and labeled in brown. The predicted binding domain of MDGA2 (the MAM domain) is highlighted by a red square and labeled in yellow. (F) HEK293T cells were co-transfected with TrkB-Flag and GFP-tagged full-length MDGA2 (MDGA2-GFP) or an MDGA2 deletion fragment lacking the entire MAM domain (ΔMAM-GFP). Cell lysates were subjected to IP with control IgG and antibodies against Flag or GFP, and immunoblotted for the components indicated. […] The scheme of MDGA2-ΔMAM is also shown. (G) HeLa cells were co-transfected with TrkB that is tagged with the N-terminal Venus fragment (TrkB-VN) and full-length MDGA2 or MDGA2-ΔMAM that are tagged with the C-terminal Venus fragment (MDGA2-VC or ΔMAM-VC) for 24 h. After immunostaining with antibodies against MDGA2/MDGA2-ΔMAM (pink) and TrkB (red), cells were observed by confocal microscopy. Venus signal (green) indicates the interaction between MDGA2 and TrkB. Schematic diagrams depicting the BiFC assay are also shown. Scale bars: 10 μm. (H, I) Equal amounts of protein lysates from primary neurons derived from Het, KO, and their WT littermate mice (H), and from WT primary neurons transfected with GFP control, MDGA2-GFP or ΔMAM-GFP (I) were subjected to IP with IgG and an anti-BDNF antibody, and then immunoblotted for the components indicated. Immunoprecipitated TrkB levels were quantified by densitometry, normalized to input levels, and compared to respective controls (set to one arbitrary units). n = 3 per group. (J) Neurons derived from KO mice were transfected with GFP control (Ctrl), MDGA2-GFP, or MDGA2-ΔMAM-GFP, and neurons derived from their WT littermates were transfected with GFP control (Ctrl). Equal amounts of protein lysates were subjected to immunoblotting for the proteins indicated. Levels of phosphorylated proteins were quantified by densitometry, normalized to respective total protein levels and compared to controls (set to one arbitrary units). n = 6 per group. Data represent mean ± SEM. P-values were determined by two-tailed unpaired Student t-test in (A) and one-way ANOVA with Tukey’s multiple comparisons test in (H, I, J). *p < 0.05, **p < 0.01, ***p < 0.001, ns: not significant. The data underlying this figure can be found in S1 Data, specifically in the sheet labeled “Figure 3”.
Fig 7 The autism spectrum disorder (ASD)-associated MDGA2 V930I mutation impairs the MDGA2-TrkB interaction and MDGA2’s inhibitory effect on the tyrosine kinase B (TrkB) signaling. (A) Schematic depiction of the WT human MDGA2 and its V930I mutation constructs that are tagged with GFP. […]

TrkB (TrkB-VN) = experiment: BiFC assay in HeLa cells (TrkB-VN with MDGA2-VC or ΔMAM-VC); assay type: cell-based, human; settings: 24 h, Venus fluorescence
Experimental: (§1) Fig 3 MDGA2 interacts with TrkB and suppresses TrkB activity. (A) Primary hippocampal neurons derived from Mdga2^ +/− (Het) mice and their wild-type (WT) littermates at DIV 7 were treated with different doses of BDNF for 30 min. Equal amounts of protein lysates were subjected to immunoprecipitation (IP) with an anti-TrkB antibody, followed by immunoblotting with an anti-phosphotyrosine (pTyr) antibody or the anti-TrkB antibody. The pTyr levels were quantified by densitometry, normalized to total TrkB levels, and then compared to those of WT controls. n = 3 per group. (B) WT mouse brain lysates were subjected to IP with an anti-MDGA2 antibody and a control IgG, and immunoblotted (IB) for the components indicated. mBDNF, mature BDNF; ImBDNF, immature BDNF. […] Immunoprecipitated TrkB levels were quantified by densitometry, normalized to input levels, and compared to respective controls (set to one arbitrary units). n = 3 per group. […] Levels of phosphorylated proteins were quantified by densitometry, normalized to respective total protein levels and compared to controls (set to one arbitrary units). n = 6 per group. […] P-values were determined by two-tailed unpaired Student t-test in (A) and one-way ANOVA with Tukey’s multiple comparisons test in (H, I, J). *p < 0.05, **p < 0.01, ***p < 0.001, ns: not significant. […]

BDNF-TrkB interaction = experiment: BDNF-TrkB Co-IP (anti-BDNF or anti-TrkB) in primary neurons / brain of Het, KO, WT and in WT neurons transfected with MDGA2 or ΔMAM; assay type: cell-based, mouse; settings: IP anti-BDNF, Fig 3I
Experimental: as §1

TrkB = experiment: Co-IP of endogenous MDGA2 and TrkB from WT mouse brain lysates; assay type: binding
recombinant TrkB protein = biological target: T1, recombinant TrkB protein (Homo sapiens, UniProt Q16620); experiment: Surface plasmon resonance (Biacore CM5, immobilized TrkB); assay type: binding; settings: SPR, TrkB immobilized on Biacore CM5 chip, analyte at several concentrations, Biacore T100 Evaluation software
T1 construct: Full-length human TrkB or MDGA2 cDNA was cloned into the pcDNA6-His vector; His; made in house; host or cells: HEK293T cells
Experimental: as §1

T1 sequence (Q16620 32-822): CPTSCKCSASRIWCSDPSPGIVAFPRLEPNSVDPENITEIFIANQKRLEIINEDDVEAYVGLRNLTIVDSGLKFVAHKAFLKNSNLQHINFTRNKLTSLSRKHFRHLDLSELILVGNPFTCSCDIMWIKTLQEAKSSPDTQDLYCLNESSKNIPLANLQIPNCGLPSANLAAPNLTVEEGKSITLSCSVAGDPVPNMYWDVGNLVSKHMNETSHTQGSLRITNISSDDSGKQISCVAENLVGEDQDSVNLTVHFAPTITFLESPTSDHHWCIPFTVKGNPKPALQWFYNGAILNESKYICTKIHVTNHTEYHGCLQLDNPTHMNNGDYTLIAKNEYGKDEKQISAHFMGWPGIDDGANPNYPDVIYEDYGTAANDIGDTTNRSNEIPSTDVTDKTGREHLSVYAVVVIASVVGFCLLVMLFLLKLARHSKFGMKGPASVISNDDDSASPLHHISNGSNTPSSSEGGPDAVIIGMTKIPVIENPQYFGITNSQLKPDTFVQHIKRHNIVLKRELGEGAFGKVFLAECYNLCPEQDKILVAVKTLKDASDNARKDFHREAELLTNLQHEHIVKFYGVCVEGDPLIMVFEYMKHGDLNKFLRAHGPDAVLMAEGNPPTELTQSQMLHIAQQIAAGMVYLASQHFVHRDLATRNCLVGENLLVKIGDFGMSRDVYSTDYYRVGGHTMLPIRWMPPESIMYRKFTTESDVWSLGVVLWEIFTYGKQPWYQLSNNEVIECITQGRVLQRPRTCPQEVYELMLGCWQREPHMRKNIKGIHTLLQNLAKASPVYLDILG

B1: MDGA2: MAM domain containing glycosylphosphatidylinositol anchor 2; full-length human, recombinant or transfected (protein, UniProt Q7Z553 1-956, looked up)
chain: MDLLYGLVWLLTVLLEGISGQGVYAPPTVRIVHSGLACNIEEERYSERVYTIREGETLELTCLVTGHPRPQIRWTKTAGSASDRFQDSSVFNETLRITNIQRHQGGRYYCKAENGLGSPAIKSIRVDVYYLDDPVVTVHQSIGEAKEQFYYERTVFLRCVANSNPPVRYSWRRGQEVLLQGSDKGVEIYEPFFTQGETKILKLKNLRPQDYANYSCIASVRNVCNIPDKMVSFRLSNKTASPSIKLLVDDPIVVNPGEAITLVCVTTGGEPAPSLTWVRSFGTLPEKTVLNGGTLTIPAITSDDAGTYSCIANNNVGNPAKKSTNIIVRALKKGRFWITPDPYHKDDNIQIGREVKISCQVEAVPSEELTFSWFKNGRPLRSSERMVITQTDPDVSPGTTNLDIIDLKFTDFGTYTCVASLKGGGISDISIDVNISSSTVPPNLTVPQEKSPLVTREGDTIELQCQVTGKPKPIILWSRADKEVAMPDGSMQMESYDGTLRIVNVSREMSGMYRCQTSQYNGFNVKPREALVQLIVQYPPAVEPAFLEIRQGQDRSVTMSCRVLRAYPIRVLTYEWRLGNKLLRTGQFDSQEYTEYAVKSLSNENYGVYNCSIINEAGAGRCSFLVTGKAYAPEFYYDTYNPVWQNRHRVYSYSLQWTQMNPDAVDRIVAYRLGIRQAGQQRWWEQEIKINGNIQKGELITYNLTELIKPEAYEVRLTPLTKFGEGDSTIRVIKYSAPVNPHLREFHCGFEDGNICLFTQDDTDNFDWTKQSTATRNTKYTPNTGPNADRSGSKEGFYMYIETSRPRLEGEKARLLSPVFSIAPKNPYGPTNTAYCFSFFYHMYGQHIGVLNVYLRLKGQTTIENPLWSSSGNKGQRWNEAHVNIYPITSFQLIFEGIRGPGIEGDIAIDDVSIAEGECAKQDLATKNSVDGAVGILVHIWLFPIIVLISILSPRR
modifications: full-length GFP tag in some constructs
notes: MAM domain containing glycosylphosphatidylinositol anchor 2; full-length human, recombinant or transfected
- pAkt level normalized to total protein ([1]; replicate 1): 1.48 arbitrary units
- pTrkB level normalized to total protein ([1]; replicate 1): 1.52 arbitrary units
- pmTOR level normalized to total protein ([1]; replicate 1): 0.88 arbitrary units
- pAkt level normalized to total protein ([1]; replicate 2): 1.42 arbitrary units
- pTrkB level normalized to total protein ([1]; replicate 2): 1.19 arbitrary units
- pmTOR level normalized to total protein ([1]; replicate 2): 1.02 arbitrary units
- pAkt level normalized to total protein ([1]; replicate 3): 1.72 arbitrary units
- pTrkB level normalized to total protein ([1]; replicate 3): 1.31 arbitrary units
- pmTOR level normalized to total protein ([1]; replicate 3): 1.26 arbitrary units
- pAkt level normalized to total protein ([1]; replicate 4): 1.9 arbitrary units
- pTrkB level normalized to total protein ([1]; replicate 4): 1.16 arbitrary units
- pmTOR level normalized to total protein ([1]; replicate 4): 1.35 arbitrary units
- pAkt level normalized to total protein ([1]; replicate 5): 1.87 arbitrary units
- pTrkB level normalized to total protein ([1]; replicate 5): 1.08 arbitrary units
- pmTOR level normalized to total protein ([1]; replicate 5): 1.92 arbitrary units
- pAkt level normalized to total protein ([1]; replicate 6): 1.07 arbitrary units
- pTrkB level normalized to total protein ([1]; replicate 6): 1.03 arbitrary units
- pmTOR level normalized to total protein ([1]; replicate 6): 1.41 arbitrary units
- overactivation of TrkB signaling (pTrkB, pAkt, pmTOR) upon expression ([1]; Mdga2-/- neurons, Fig 3J, n = 6): could be reversed upon the expression of full-length MDGA2
- interaction with TrkB (BiFC) (TrkB (TrkB-VN)): could interact with full-length MDGA2
- interaction between BDNF and TrkB upon overexpression (BDNF-TrkB interaction): attenuated the interaction between BDNF and TrkB
- interaction of endogenous MDGA2 (Co-IP) (TrkB; IP anti-MDGA2, Fig 3B): immunoprecipitated TrkB and NLGN1 but not mBDNF or ImBDNF
- interaction of endogenous MDGA2 (Co-IP) (TrkB; IP anti-TrkB, S3C Fig): specifically immunoprecipitated MDGA2 but not MDGA1
- Kd (recombinant TrkB protein): 24.4 nM
